From article PMC5788503, “Hepatitis B virus core protein allosteric modulators can distort and disrupt intact capsids” (eLife, 2018) come the findings set out here.

This series deals with the molecule itself. The series is described as follows: negative stain electron microscopy; Cp149 assembly reaction, 50 mM HEPES, 300 mM NaCl, 10 uM dimer, no CpAM.

B1: Hepatitis B virus core protein assembly domain, Cp149 (domain or fragment)
chain: MDIDPYKEFGATVELLSFLPSDFFPSVRDLLDTAAALYRDALESPEHCSPHHTALRQAILCWGDLMTLATWVGTNLEDPASRDLVVSYVNTNVGLKFRQLLWFHISCLTFGRETVLEYLVSFGVWIRTPPAYRPPNAPILSTLPETTVV
notes: Hepatitis B virus subtype adyw core protein (Cp), assembly domain: the first 149 residues of the 183-residue protein; Purified as a homodimer; Dimers were assembled into capsids at 10 uM dimer in 300 mM NaCl, 50 mM HEPES pH 7.5; The apo capsid comparator PDB 1QGT is cited without its construct being named; also called purified dimeric assembly domain; apo-capsids; source: E. coli, purified by …
On to B1, for which the binding result was “binds”.
